Experimental data from the Immune Epitope Database (IEDB).

What was measured:
HLA-A*02:01 [1] = test: IEDB peptide-MHC binding, cellular MHC/competitive/fluorescence; ≥ and ≤ were set here for values at or beyond the usual limits of such assays
HLA-A*02:03 = test: as above
HLA-A*02:06 [2] = test: as above
HLA-A*02:02 = test: IEDB peptide-MHC binding, purified MHC/competitive/radioactivity; ≥ and ≤ were set here for values at or beyond the usual limits of such assays
HLA-A*68:02 [3] = test: as above
HLA-A*68:02 [4] = test: IEDB peptide-MHC binding, cellular MHC/competitive/fluorescence; ≥ and ≤ were set here for values at or beyond the usual limits of such assays
HLA-A*02:01 [5] = test: IEDB peptide-MHC binding, purified MHC/competitive/radioactivity; ≥ and ≤ were set here for values at or beyond the usual limits of such assays
HLA-A*02:06 [6] = test: as above
[7] = source organism: Vaccinia virus WR
[8] = source organism: Mammarenavirus choriomeningitidis
[9] = source organism: Influenza A virus
[10] = source organism: Mammarenavirus machupoense

| Sequence | IC50 (HLA-A*02:01 [1]; [7]) [µM] | IC50 (HLA-A*02:03; [7]) [µM] | IC50 (HLA-A*02:06 [2]; [7]) [µM] | IC50 (HLA-A*02:02; [7]) [µM] | IC50 (HLA-A*68:02 [3]; [7]) [µM] | IC50 (HLA-A*68:02 [4]; [7]) [µM] | further results |
| --- | --- | --- | --- | --- | --- | --- | --- |
| WLRAKRKPAM | 22.5 | 20.1 | 11.9 | 4.67 | 2.86 | – | – |
| VAVNKSNKPL | 45 | 5.13 | 17.6 | 2.75 | – | 9.35 | – |
| SCDDVVFGI | – | – | – | – | – | – | IC50 (HLA-A*02:01 [1]; [8]): 5.61 µM; IC50 (HLA-A*02:03; [8]): 50.5 µM; IC50 (HLA-A*02:06 [2]; [8]): 14.6 µM; IC50 (HLA-A*02:02; [8]): 2.15 µM; IC50 (HLA-A*68:02 [3]; [8]): 0.306 µM |
| NIEIMDKEQL | – | 15.5 | 5.65 | 3.47 | 1.38 | – | IC50 (HLA-A*02:01 [5]; [7]): 4.66 µM |
| CTSEIQNVT | 13.5 | 5.19 | 10.2 | 0.188 | 0.09 | – | – |
| IVDKFGKNHI | 11.2 | 5.08 | 8.33 | 2.93 | – | 12.4 | – |
| RAGYSIVEL | – | 5.39 | 5.07 | 4.94 | 1.21 | – | IC50 (HLA-A*02:01 [5]; [7]): 5 µM |
| LIFNVKSKLL | 25.5 | 6.69 | 28.5 | 2.39 | – | 32.6 | – |
| QAKKPEVRI | 39.7 | 6.57 | 42 | 0.738 | – | ≥ 70 | – |
| GILHLILWIL | – | – | – | – | – | – | IC50 (HLA-A*02:01 [1]; [9]): 16.7 µM; IC50 (HLA-A*02:03; [9]): 7.7 µM; IC50 (HLA-A*68:02 [4]; [9]): 8.03 µM; IC50 (HLA-A*02:02; [9]): 4.52 µM; IC50 (HLA-A*02:06 [6]; [9]): 2.54 µM |
| DVQRTRCKYV | – | 6.46 | 9.51 | 1.07 | 1.46 | – | IC50 (HLA-A*02:01 [5]; [7]): 1.57 µM |
| NQLDSSNKSM | 17.1 | 30 | – | 1.78 | – | 52.7 | IC50 (HLA-A*02:06 [6]; [7]): 0.635 µM |
| SANMDWRSLT | 55.7 | 11.3 | 48.1 | 1.79 | – | 15.4 | – |
| NIVTDLENRL | 19.6 | 17.6 | – | 0.261 | – | 13.2 | IC50 (HLA-A*02:06 [6]; [7]): 1.55 µM |
| TVGMLIYSM | – | 6.09 | 9.18 | 0.49 | 1.79 | – | IC50 (HLA-A*02:01 [5]; [7]): 0.809 µM |
| CAAMDDFQL | – | – | – | – | – | – | IC50 (HLA-A*02:01 [1]; [9]): 10.9 µM; IC50 (HLA-A*02:03; [9]): 22.8 µM; IC50 (HLA-A*68:02 [4]; [9]): 5.07 µM; IC50 (HLA-A*02:02; [9]): 1.01 µM; IC50 (HLA-A*02:06 [6]; [9]): 2.1 µM |
| VIVVPVIDRL | 14.8 | 59 | 11.1 | 4.57 | – | 31.4 | – |

| Sequence | IC50 (HLA-A*02:01 [1]; [7]) [µM] | IC50 (HLA-A*02:03; [7]) [µM] | IC50 (HLA-A*02:06 [2]; [7]) [µM] | IC50 (HLA-A*02:02; [7]) [µM] | IC50 (HLA-A*68:02 [3]; [7]) [µM] | IC50 (HLA-A*68:02 [4]; [7]) [µM] | further results |
| --- | --- | --- | --- | --- | --- | --- | --- |
| SSWAVHWFS | – | – | – | – | – | – | IC50 (HLA-A*02:01 [1]; [10]): 8.01 µM; IC50 (HLA-A*02:03; [10]): ≥ 70 µM; IC50 (HLA-A*02:06 [2]; [10]): 46.8 µM; IC50 (HLA-A*02:02; [10]): 4.65 µM; IC50 (HLA-A*68:02 [3]; [10]): 4.1 µM |
| NLEELTTVFI | 7.5 | 6.5 | 12.3 | 0.418 | 1.3 | – | – |
| LISILMIFI | – | 5 | 7.03 | 2.37 | – | 10.5 | IC50 (HLA-A*02:01 [5]; [7]): 1.29 µM |
| DIYDAVRAFL | 5.42 | 6.95 | 12.1 | 1.46 | 0.257 | – | – |
| IAGIILLIL | – | 52.9 | ≥ 70 | 4.19 | – | 8.8 | IC50 (HLA-A*02:01 [5]; [7]): 3.23 µM |
| RTRCKYVGCT | 48.5 | 12.3 | 11.6 | 0.149 | 4.69 | – | – |
| KLISEKETL | 10.2 | 24.7 | 7.65 | 0.841 | – | ≥ 70 | – |
| LNKSDSSWAV | – | – | – | – | – | – | IC50 (HLA-A*02:03; [10]): 5.25 µM; IC50 (HLA-A*68:02 [4]; [10]): 8.7 µM; IC50 (HLA-A*02:01 [5]; [10]): 1.23 µM; IC50 (HLA-A*02:02; [10]): 0.55 µM; IC50 (HLA-A*02:06 [6]; [10]): 2.19 µM |
| YVHSLLYSSM | 29 | 6.71 | – | 2.2 | – | 7.25 | IC50 (HLA-A*02:06 [6]; [7]): 2.25 µM |
| LNVSYLCHL | – | – | – | – | – | – | IC50 (HLA-A*02:01 [1]; [10]): 6.27 µM; IC50 (HLA-A*02:03; [10]): 7.1 µM; IC50 (HLA-A*02:06 [2]; [10]): 13.7 µM; IC50 (HLA-A*68:02 [4]; [10]): 20.3 µM; IC50 (HLA-A*02:02; [10]): 0.297 µM |
| FVETLARSI | – | – | – | – | – | – | IC50 (HLA-A*02:01 [1]; [9]): 5.26 µM; IC50 (HLA-A*02:03; [9]): 6.18 µM; IC50 (HLA-A*68:02 [4]; [9]): 11.7 µM; IC50 (HLA-A*02:02; [9]): 0.382 µM; IC50 (HLA-A*02:06 [6]; [9]): 4.33 µM |
| VVYHDDDNTT | – | 12.6 | – | 1.86 | – | 27.8 | IC50 (HLA-A*02:01 [5]; [7]): 2.98 µM; IC50 (HLA-A*02:06 [6]; [7]): 3.92 µM |
| QIYLSDSDNI | 24.9 | 19.6 | 14.9 | 1.24 | 0.658 | – | – |
| ELPYVGDTSM | 13.4 | 14.2 | 29.8 | 4.13 | 0.913 | – | – |
| YTGGYDVSL | – | 6.05 | 20.3 | 1.99 | – | 6.67 | IC50 (HLA-A*02:01 [5]; [7]): 3.74 µM |
| TVSSFQDIL | – | – | – | – | – | – | IC50 (HLA-A*02:01 [1]; [9]): 40.7 µM; IC50 (HLA-A*02:03; [9]): 8.97 µM; IC50 (HLA-A*02:06 [2]; [9]): 13.8 µM; IC50 (HLA-A*02:02; [9]): 0.457 µM; IC50 (HLA-A*68:02 [3]; [9]): 0.846 µM |
